{"source": "paper PMC11931385", "about": "“Structural and functional analysis of cancer-associated missense variants in the retinoblastoma protein pocket domain” (The Journal of Biological Chemistry, 2025)", "binders": {"B1": {"name": "TMR-E2F1^TD, peptide of the E2F1 transactivation domain (peptide)", "peptide": "{TMR}-GEGIRDLFDCDFGDLTPLD", "notes": "also called E2F^TD; source: synthetic peptide, bought: GenScript"}, "B2": {"name": "TMR-E7^LxCxE, LxCxE peptide of the E7 oncoprotein from HPV (peptide)", "peptide": "DLYCYEQLN", "modifications": "also: TMR label, position not given here", "notes": "source: synthetic peptide, bought: GenScript"}}, "assay_in_all_cases": "fluorescence polarisation; 37 °C, after the 25 °C reading ramped over 7 min to 37 °C and 2 min incubation; unlabeled Rb^P against 1.5 nM TMR-E2F1^TD or 7.5 nM TMR-E7^LxCxE; 25 mM Tris pH 8.0, 200 mM NaCl, 1 mM DTT, 0.1% Tween-20; apparent Kd", "conditions_in_all_cases": "both partners purified", "key": {"[1]": {"target": "T1, Rb^P S671F (human, UniProt P06400 380-788, S671F)", "T1 construct": "also called variant 53", "T1 sequence (looked up)": "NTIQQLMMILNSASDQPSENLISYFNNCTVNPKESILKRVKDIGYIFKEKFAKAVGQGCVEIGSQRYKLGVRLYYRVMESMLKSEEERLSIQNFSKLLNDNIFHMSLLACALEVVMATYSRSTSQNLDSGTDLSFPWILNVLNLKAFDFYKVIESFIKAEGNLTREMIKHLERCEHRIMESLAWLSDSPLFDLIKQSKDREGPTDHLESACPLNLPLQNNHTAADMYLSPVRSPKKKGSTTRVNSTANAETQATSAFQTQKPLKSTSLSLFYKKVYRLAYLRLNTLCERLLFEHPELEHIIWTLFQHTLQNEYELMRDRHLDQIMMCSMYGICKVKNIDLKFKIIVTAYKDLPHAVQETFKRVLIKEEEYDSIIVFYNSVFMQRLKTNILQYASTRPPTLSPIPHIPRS"}, "[2]": {"target": "T2, Rb^P S474I (human, UniProt P06400 380-788, S474I)", "T2 construct": "also called variant 11", "T2 sequence (looked up)": "T1 sequence (looked up) with S95I, F292S"}, "[3]": {"target": "T3, Rb^P S474N (human, UniProt P06400 380-788, S474N)", "T3 construct": "also called variant 12", "T3 sequence (looked up)": "T1 sequence (looked up) with S95N, F292S"}, "[4]": {"target": "T4, Rb^P M546I (human, UniProt P06400 380-788, M546I)", "T4 construct": "also called variant 25", "T4 sequence (looked up)": "T1 sequence (looked up) with M167I, F292S"}, "[5]": {"target": "T5, Rb^P I703V (human, UniProt P06400 380-788, I703V)", "T5 construct": "also called variant 65", "T5 sequence (looked up)": "T1 sequence (looked up) with F292S, I324V"}}, "note": "Where a chain is given by its changes, count along the chain named. Names and notes keep the numbering of the source. No end group written: not given here. TMR = tetramethyl rhodamine dye", "data": [{"binder": "B1", "values": [{"measurement": "Kd", "setting": "[1]", "value": 46, "unit": "nM"}, {"measurement": "Kd", "setting": "[2]", "value": 775, "unit": "nM"}, {"measurement": "Kd", "setting": "[3]", "value": 26, "unit": "nM"}, {"measurement": "Kd", "setting": "[4]", "value": 21, "unit": "nM"}, {"measurement": "Kd", "setting": "[5]", "value": 99, "unit": "nM"}]}, {"binder": "B2", "values": [{"measurement": "Kd", "setting": "[1]", "value": 19, "unit": "nM"}, {"measurement": "Kd", "setting": "[2]", "value": 18, "unit": "nM"}, {"measurement": "Kd", "setting": "[3]", "value": 13, "unit": "nM"}, {"measurement": "Kd", "setting": "[4]", "value": 13, "unit": "nM"}, {"measurement": "Kd", "setting": "[5]", "value": 53, "unit": "nM"}]}]}
